Changes are numbered by the printed parent chain.
How the values were obtained:
Assay in all cases: disulfide (cystamine) crosslinking, SDS-PAGE; 2.5 mM MnCl2; MST: 25 mM Hepes pH 7.5, 150 mM NaCl, 1 mM DTT, with or without 2 mM GTP and 2 mM MnCl2, 20 nM Cy5-tRNA, temperature not stated; crosslinking: 50 mM Tris pH 7.5, 25 mM NaCl, 25 mM KCl, 30% glycerol, 2.5 mM MnCl2, 0-1 mM DTT, 37 C 2 h then 24 C 14 h
Settings in all cases: protein: recombinant; tags: His6-SUMO removed; single strand
[1] = biological target: T1, Tb-RtcB S199C (Thermococcus barophilus, UniProt F0LKB8 1-479, S199C)
T1 sequence: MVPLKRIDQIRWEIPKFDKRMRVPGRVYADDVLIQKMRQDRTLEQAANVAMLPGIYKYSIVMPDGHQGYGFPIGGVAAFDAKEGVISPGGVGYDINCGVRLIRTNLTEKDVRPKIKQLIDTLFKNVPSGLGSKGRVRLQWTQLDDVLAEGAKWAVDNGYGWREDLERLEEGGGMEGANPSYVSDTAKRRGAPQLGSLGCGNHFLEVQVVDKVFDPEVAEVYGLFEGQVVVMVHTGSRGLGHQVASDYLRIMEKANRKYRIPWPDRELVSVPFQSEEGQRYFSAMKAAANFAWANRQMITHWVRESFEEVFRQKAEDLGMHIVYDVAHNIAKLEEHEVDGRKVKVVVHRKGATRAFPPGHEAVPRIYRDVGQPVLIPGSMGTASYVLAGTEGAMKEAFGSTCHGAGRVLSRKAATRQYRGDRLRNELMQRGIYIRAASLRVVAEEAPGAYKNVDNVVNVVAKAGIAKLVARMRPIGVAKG

[2] = biological target: T2, Tb-RtcB L130C (Thermococcus barophilus, UniProt F0LKB8 1-479, L130C)
T2 sequence: T1 sequence with L130C, C199S

[3] = biological target: T3, Tb-RtcB R237C (Thermococcus barophilus, UniProt F0LKB8 1-479, R237C)
T3 sequence: T1 sequence with C199S, R237C

| Binder | binding result [1] | binding result [2] | binding result [3] |
| --- | --- | --- | --- |
| AAACACCGGUGGAGG (ssRNA, cystamine on phosphate between nt 2 and 3; 2'-F at nt 2; 3'-phosphate) [RNA-1] | binds | binds | binds |
| AAACACCGGUGGAGG (ssRNA, cystamine on phosphate between nt 1 and 2; 2'-F at nt 1; 3'-phosphate) [RNA-2] | – | – | binds |

Source: article PMC12135372, “Structural and biochemical characterization of the 3′-5′ tRNA splicing ligases”
